Consider one substance from PMC10514136, “Peptide-conjugated antimiRs improve myotonic dystrophy type 1 phenotypes by promoting endogenous MBNL1 expression” (Molecular Therapy. Nucleic Acids, 2023).

The subject of this series is DM1 cells. Nature of the series: Cell growth inhibition of DM1 cells, gymnosis vs transfection at EC50. Format: cell-based, human. As to conditions: at the EC50 concentration. The protocol:
Immortalized MyoD-inducible (doxycycline) DM1 and control fibroblasts were kindly provided by Dr Furling (Institute of Myology, Paris, France).[38] For the activity assay, cells were seeded in 6-well plates at a density of 8 × 10^4 cells/well and grown in DMEM with 4.5 g/L glucose, 1% P/S, and 10% FBS (Sigma, St. Louis, MO). To transdifferentiate fibroblasts into myoblasts by inducing MyoD expression, the cells were plated in muscle differentiation medium containing DMEM with 4.5 g L^−1 glucose, 1% P/S, 2% horse serum, 1% apo-transferrin (10 mg mL^−1), 0.1% insulin (10 mg mL^−1), and 0.02% doxycycline (10 mg mL^−1). In all cases, the cells were grown at 37°C in a humidified atmosphere containing 5% CO2. Transdifferentiation was induced at day 0, and transfection was performed by lipofection with X-tremeGENE HP (Roche, Basel, Switzerland) 24 h later, with antimiRs and test compounds in the cell medium at different concentrations (from 0.4 nM to 5 μM). […]
Cells seeded at 10^5 cells/mL in 96-well plates were transfected 24 h later with antimiRs as described previously.[20] After 96 h, cell proliferation was measured using the CellTiter 96 AQueous Non-Radioactive Cell Proliferation Assay (Promega, Madison, WI). Absorbance levels were determined using an Infinite M200 PRO plate reader (Tecan, Männedorf, Switzerland) and the TC50 was calculated using non-linear least-squares regression.

On to “9b2KC-23b (antisense GGUAAUCCCUGGCAAUGUGAU; all phosphorodiamidate morpholino (PMO), T or U not given here; Pip9b2KC peptide conjugated)”, for which the “toxicity (cell growth inhibition), gymnosis compared with transfection” value is recorded as “toxicity was significantly reduced”.
